Measured values from US5786462, “High affinity ssDNA ligands of HIV-1 reverse transcriptase” (NeXstar Pharmaceuticals, Inc.).

What was measured:
[1] = target: T1, HIV-1 reverse transcriptase (Human immunodeficiency virus 1, UniProt P03366;P03366 P03366:600-1159,P03366:600-1039); assay: inhibition; Ki', RNA-dependent DNA polymerase activity; conditions: tags: expressed in E. coli, purified per Davies et al. 1991
Text: (§1) Assay For Inhibition of RNA-Dependent DNA Polymerase Activity. A substrate for the RNA-dependent DNA polymerase activity of HIV-1 RT was assembled by annealing an 18 nucleotide, 5' end-labeled DNA primer to a 30 nucleotide RNA template with a complementary 3' end (see FIG. 10), and purifying the duplex on a 12% non-denaturing acrylamide gel. The primer sequence matched the 3' terminal 18 nucleotides of tRNA^{Lys,3}, responsible for priming minus-strand DNA synthesis of the HIV-1 genome, and the template sequence paralleled the HIV-1 genomic primer binding site and downstream 12 nucleotides. A dilution series of inhibitory ssDNA ligand (to give a final concentration of 0, 1, 3, 9, 27, or 81 nM) was denatured in HRT Buffer at 70° C. for 5 minutes and allowed to renature slowly at 20° C. The primer:template substrate was added to a final concentration of 40 nM, along with dNTP's at 400 μM. The 10 μl reaction was initiated with the addition of either HIV-1, AMV, or MMLV-RT (to give a final concentration of 10 nM), allowed to proceed for 5 minutes at 37° C., and terminated with one volume of formamide. Extension products were separated on an 8% denaturing acrylamide gel and quantitated with an Ambis radioanalytic imager.
The ability of each of the 8 isolates to inhibit the RNA-dependent DNA polymerase activity of HIV-1 RT was assayed by measuring the decrease in extension product formation from a primer::template substrate as a function of inhibitor concentration (FIGS. 10A–10E). The substrate for the inhibition assay was a DNA:RNA heteroduplex consisting of an 18 nucleotide end-labeled DNA primer (SEQ ID NO: 74) identical in sequence to the 3' end of tRNA^{Lys,3} annealed to a 30 nucleotide RNA template (SEQ ID NO: 75) whose sequence matches the genomic primer binding site and the first twelve transcribed nucleotides. Extension reactions were performed as described in Example 1 in the presence of 0, 81, 27, 9, 3, and 1 nM inhibitor as indicated in FIG. 10.

[2] = target: T1, HIV-1 reverse transcriptase; assay: filter; HRT buffer, 6 mM MgCl2, 37 C; conditions: tags: expressed in E. coli, purified per Davies et al. 1991, label: 5'-32P
Protocol: Nitrocellulose Filter Binding Assays. Oligonucleotides bound to proteins can be effectively separated from the unbound species by filtration through nitrocellulose membrane filters (Yarus, M. and Berg, P. (1970) Anal. Biochem. 35:450–465; Lowary, P. T. and Uhlenbeck, O. C. (1987) Nucleic Acids Res. 15:10483–10493; Tuerk, C. and Gold, L. (1990) Science 249:505–510). The affinity of the random ssDNA library for HIV-1 RT was determined using a protein excess nitrocellulose filter binding assay as described in Carey, J. et al. (1983) Biochemistry 22:2601–2609. Selections were performed with a saturating ssDNA concentration to promote competition among DNA ligands for a limited number of available target binding sites.
(§2) Binding Curves Confirm High Affinity of Individual Ligands. Affinity values of each of the eight chosen isolates for HIV-1 RT were measured using the filter binding assay described in Example 1 (FIGS. 7A–C). […] Differences in maximum percent bound likely reflect competing ligand structures with lower affinity. […] Indicated dissociation constants were determined as in Example 1.

[3] = target: T1, HIV-1 reverse transcriptase; assay: inhibition; Ki', RNA-dependent DNA polymerase activity, 10 nM RT, 40 nM substrate, 37 C; conditions: tags: expressed in E. coli, purified per Davies et al. 1991; label: 5'-32P; internal loop (AA opposite CG) helix
Text: as §1, with “imager. […]” for “imager.”

[4] = target: T1, HIV-1 reverse transcriptase; assay: filter; competition against RT1 gave Kc 3 nM (Example 5, FIG. 14); conditions: tags: expressed in E. coli, purified per Davies et al. 1991; pseudoknot
Protocol: 15:10483–10493; Tuerk, C. and Gold, L. (1990) Science 249:505–510). The affinity of the random ssDNA library for HIV-1 RT was determined using a protein excess nitrocellulose filter binding assay as described in Carey, J. et al. (1983) Biochemistry 22:2601–2609. Selections were performed with a saturating ssDNA concentration to promote competition among DNA ligands for a limited number of available target binding sites.
as §2

[5] = target: T1, HIV-1 reverse transcriptase; assay: filter; first 49 nt of RT1; conditions: tags: expressed in E. coli, purified per Davies et al. 1991

B1: RT26 (ssDNA)
DNA: ATCCGCCTGATTAGCGATACTTACGTGAGCGTGCTGTCCCCTAAAGGTGATACGTCACTTGAGCAAAATCACCTGCAGGGG
- Ki ([1]; label: 5'-32P, intramolecular primer:template junction with internal loop (AA opposite CG)): 2.7 nM
- Kd ([2]; intramolecular primer:template junction with internal loop (AA opposite CG)): ~1 nM

B2: RT4 (ssDNA)
DNA: ATCCGCCTGATTAGCGATACTTTAGCAAAGTTGAAGCCGGACTAACAAGCTCTACGACTTGAGCAAAATCACCTGCAGGGG
- Ki ([1]; label: 5'-32P, internal loop variant (AA opposite AG)): 4.1 nM

B3: RT1 (ssDNA)
DNA: ATCCGCCTGATTAGCGATACTCAGAAGGATAAACTGTCCAGAACTTGGAATATATCACTTGAGCAAAATCACCTGCAGGGG
- Kd ([2]; internal loop (AA opposite CG) helix): ~1 nM
- Ki [3]: 0.3 nM

Binder: GGUCCGAAGUGCAACGGGAAAAUGCACU (ssRNA) [RNA pseudoknot (RNA pk)]
- Ki ([1]; pseudoknot): 4.7 nM
- Kd [4]: 5 nM

B4: RT8 (ssDNA)
DNA: ATCCGCCTGATTAGCGATACTAGCCAGTCAAGTTAATGGGTGCCATGCAGAAGCAACTTGAGCAAAATCACCTGCAGGGG
- Ki ([1]; label: 5'-32P, internal loop variant (CAA opposite TAG)): 13 nM

B5: RT6 (ssDNA)
DNA: ATCCGCCTGATTAGCGATACTCAGGCGTTAGGGAAGGGCGTCGAAAGCAGGGTGGGACTTGAGCAAAATCACCTGCAGGGG
- Ki ([1]; label: 5'-32P): 30 nM
- Kd [2]: 5 nM

B6: RT36 (ssDNA)
DNA: ATCCGCCTGATTAGCGATACTAAGCTCTTAGTTGATGCGCGGTCAAAATTTAAGCTACTTGAGCAAAATCACCTGCAGGGG
- Ki ([1]; label: 5'-32P, internal loop variant (AA opposite A)): 6.5 nM

Binder: ATCCGCCTGAATAGCGATACTCAGAAGGATAAACTGTCCAGAACTTGGA (ssDNA) [RT1t49]
- Kd [5]: 4 nM

B7: RT10 (ssDNA)
DNA: ATCCGCCTGATTAGCGATACTTATTTGCCCTTGCAGGCCGCAGGAGTGCTAGCAGTACTTGAGCAAAATCACCTGCAGGGG
- Ki ([1]; label: 5'-32P, intramolecular primer:template junction): 62 nM
